Test results taken from patent publication US20210015937A1 (CRESCENDO BIOLOGICS, published 2021).

Experiments:
[1] = molecular target: T1, human LAG-3 domains 1-2-Fc (human, UniProt P18627 23-261, limits assumed); assay: ELISA, coated antigen, VH at 10 µg/ml, anti-HIS HRP
T1 construct: Domains were identified as per Huard et al 1997 PNAS 94:5744-9; also called truncated LAG-3
T1 sequence: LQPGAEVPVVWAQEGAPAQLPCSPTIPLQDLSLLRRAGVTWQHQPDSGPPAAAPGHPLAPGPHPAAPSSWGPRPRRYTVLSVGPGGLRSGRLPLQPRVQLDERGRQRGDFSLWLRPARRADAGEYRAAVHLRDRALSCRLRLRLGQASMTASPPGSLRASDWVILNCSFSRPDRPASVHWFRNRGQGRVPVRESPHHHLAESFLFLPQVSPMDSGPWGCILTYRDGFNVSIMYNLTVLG
Description: (§1) To screen specificity by ELISA, antigens were coated at 1-5 ug/ml and blocked with Marvel milk powder. VH were added at 10 μg/ml and incubated for 1 hour. After washing, HRP-conjugated anti-HIS antibody (Miltenyi cat no. 130-092-785) was added. TMB substrate and acidic solution were used to develop colorimetric signal.

[2] = molecular target: T2, recombinant human LAG-3-Fc (human, UniProt P18627 23-450); assay: as above
T2 construct: also called human LAG-3 (R&D Systems cat no. 2319-L3); LAG3 antigen
T2 sequence: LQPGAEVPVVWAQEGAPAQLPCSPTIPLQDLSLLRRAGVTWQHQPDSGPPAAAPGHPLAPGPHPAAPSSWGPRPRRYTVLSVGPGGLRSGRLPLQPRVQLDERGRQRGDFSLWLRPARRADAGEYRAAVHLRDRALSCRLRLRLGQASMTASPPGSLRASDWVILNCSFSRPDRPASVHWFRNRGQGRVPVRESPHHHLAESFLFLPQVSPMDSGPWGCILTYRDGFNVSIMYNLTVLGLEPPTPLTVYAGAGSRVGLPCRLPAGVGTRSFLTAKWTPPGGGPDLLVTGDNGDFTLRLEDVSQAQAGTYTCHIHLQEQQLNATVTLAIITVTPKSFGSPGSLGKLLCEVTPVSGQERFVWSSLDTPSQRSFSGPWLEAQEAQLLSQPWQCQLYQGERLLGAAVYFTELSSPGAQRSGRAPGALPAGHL
Description: as §1

[3] = molecular target: T3, Rhesus monkey LAG-3 (used as cynomolgus LAG-3) (Rhesus monkey (called cynomolgus in the …)); assay: as above
T3 construct: extracellular domain
Description: as §1

[4] = molecular target: T4, human LAG-3 expressed on cells (human, UniProt P18627 23-525); assay: flow cytometry (Intellicyte) on anti-CD3/anti-CD28 stimulated human CD4+ T cells; His-tagged VH detected with anti-HIS biotin and streptavidin AlexaFluor488
T4 construct: also called CHO cells expressing human LAG-3; CHO human LAG-3 cells
T4 sequence: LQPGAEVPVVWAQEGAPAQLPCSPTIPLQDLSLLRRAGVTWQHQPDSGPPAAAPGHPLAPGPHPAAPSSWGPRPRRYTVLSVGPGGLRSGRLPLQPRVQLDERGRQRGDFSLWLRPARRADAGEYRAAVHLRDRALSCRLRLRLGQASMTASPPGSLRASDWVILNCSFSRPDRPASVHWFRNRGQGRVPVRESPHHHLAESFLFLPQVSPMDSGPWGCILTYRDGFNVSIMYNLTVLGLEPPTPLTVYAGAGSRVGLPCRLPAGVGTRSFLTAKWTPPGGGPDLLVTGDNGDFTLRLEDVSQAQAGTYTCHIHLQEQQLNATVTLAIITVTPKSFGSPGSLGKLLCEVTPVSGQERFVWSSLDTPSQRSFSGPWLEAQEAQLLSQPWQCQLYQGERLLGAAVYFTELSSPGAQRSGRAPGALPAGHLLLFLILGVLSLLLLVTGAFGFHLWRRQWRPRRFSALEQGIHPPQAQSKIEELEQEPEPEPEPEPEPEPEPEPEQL
Description: FIG. 2. CD4+ T cells were stimulated with anti-CD3 and anti-CD28. Cells were stained with HIS tagged VH plus anti-HIS tag labelled with biotin and streptavidin AlexaFluor488. Cells were analysed using Intellicyte® cytometer.
Binding onto human activated T cells was measured by cytometry. PBMC or magnetically isolated T cells were isolated from leukocytes cones and cells were incubated in 96 well plates coated with anti-CD3 (OKT3) at 5 μg/ml. Anti-CD28 (CD28.2) was added at 1 μg/ml in RPMI media and foetal bovine serum. After 72-96 hours, cells were harvested and stained using standard flow cytometry methods. […] Fluorescently labelled anti-CD4 and anti-CD8 were included in PBMC cultures and a live/dead dye. Stained cells were analysed using the IQue cytometer (Intellicyte). EC50 were calculated from the titration curve of median fluorescence of Humabody, gating on CD4+ or CD8+ cells if using mixed cells.

- ELISA signal over background [1]: > 10 fold over background
- ELISA signal over background [2]: > 10 fold over background
- ELISA signal over background [3]: > 10 fold over background
- EC50 (read off the curve) [4]: ~0.1 nM
B1: VH1.1-6GS-VH1.1-His6 (VHH)
chain: EVQLVESGGGVVRPGGSLRLSCSASGFTFDDYGMSWVRQAPGKGLEWVSGIHWNGGNSGYADSVKGRFTISRDNAKNSLYLQMNSLRAEDTALYYCARIPREDCSSASCYTDAIDFWGPGTMVTVSSGGGGSGGGGSGGGGSGGGGSGGGGSGGGGSEVQLVESGGGVVRPGGSLRLSCSASGFTFDDYGMSWVRQAPGKGLEWVSGIHWNGGNSGYADSVKGRFTISRDNAKNSLYLQMNSLRAEDTALYYCARIPREDCSSASCYTDAIDFWGPGTMVTVSSAAAHHHHHH
notes: Tandem fusion of two VH 1.1, bivalent for LAG-3; The entry includes the C-terminal AAA-His6; also called 1.1-6GS-1.1; bivalent 1.1-6GS-1.1
